This series in a line: label from the status in PepcDB records.
On to “MKNIAFFDFDGTITSTDSYTPFIFQTIPASRMKKGKFLLAPYILGYRLKLIRGTVLRSKIFKLGFAGLDADEIQQKGLSFSQSYLPQIIRPQALERIQWHLAQGDHVVVVSASMDVYLKPWCTQYGLDLLCSEVDTINGKITGIYKNGDCSREVKKQRILDNYDLSLYAAIYAYGDTIEDQAMLSLATHGFYRWQPINPR”, for which the protein production result is “failed”. As to “MKNIIACIDGSPTTFATCEASAWVASKINAPLILLHALDKTMRPVVSEFSGQIGLGSQEELLNELAELDEARSKVALKHGKKLLEEATEWVIKKGLTNVEQLQRHGSLLESLIDLENQLRVLVIGKLGEDQSSNKTIGSQLESIIRSIKSHTLVVT”, the protein production result is on record as “failed”. On to “MKNIINILDDLTINKIAAGEVVERPSSVVKELIENSIDAGANKISIDIIDGGKSLIKITDNGIGIPSSEVEKSFLRHATSKIKKIDDLYDLYSLGFRGEALASISAVSKLEMTTKTKDEIIGTKIYVEGGKIISKEPIGFTNGTTIIIKDIFFNTPARQKFLKSTHAETINISDLINKLAIGNPNIQFKYTNNNKQMLNTPGDGKLVNTIRSIYGKEITENIIDVEFKCNHFKMNGYIGNNNIYRSNKNLQHIYINKRFVKSKIIIDAITESYKSIIPIGKHAVCFLNIEVDPSCIDVNIHPNKLEIKFEKEQEVYIELRDFLKVKLIHSNLIGKYATYSDKKTQPRIAINSREKSTDYKLRNNDLLESTPKNSNITKGKDEVIEVVTLSSEKPINEFQSVSEVLNASVEDDVKNINYLSEDSANDNIQEEFQVDGIKNEGNYYLGDSIKDSEEEYLCSSKRKFSLYGYSVIGVVFNTYIILSKDDSMYLLDQHAAHERILYERYMEKFYRQDINMQILLDPVVIEVSNVDMLQIENNLELFMKFGFELEIFGNNHIMVRCVPTIFGVPETEKFILQIIDNIEEITSNYDLKGERFASMACRSAIKANDKIYDIEIKSLLEQLEKCENPFTCPHGRPIMVEISKTEIEKMFKRIM”, for which the protein production result is “failed”.

Take “MKNIKIMRLVTGEDIIGNISESQGLITIKKAFVIIPMQATPGKPVQLVLSPWQPYTDDKEIVIDDSKVITITSPKDDIIKSYESHTSEIITPSGLITET”: the protein production entry is “not failed”. “MKNLYILIFACLAISAQGQQLLNSDFENWTNHPGSGGYSSYDEADNWASGNAAVNIAPGLTPPTTKTTDAQHGNAAVKLTTQSIFGQIAAGNLFTGKFQLNLSNPVKSVQMGIPYVSRPSAFNVYYKYAPVNGDSCAIYVLLTKYNTSTKKTDTIGRGHFSSTANVSVYTLLHIPVTYTSTAAPDSIAMVFTSSADGGNFRGQVGSSLTVDNFSLEFEELSIATSLAAVSAVLYPNPAQSRVALSNAPSESGTVYFYNVAGKLVSSQKWTGTVSPEFALDNMPAGFYTCKFITSDTAVFSGKLLITE”: the protein production result is reported as “failed”. As for “MKNPDYEPSKPHHTPDGFRNRYPHAPRDSNGSAWKWMRERRRLGLPKPPTADLSCVPPDLAAIRRPSAVPQVTWIGHETLLLQIDGLNVLTDPVFGERASPLPFAGPRRHQPPGLSLAQLPHIDLVLLSHNHYDHLCRASVRALMRQPGGAPMFFVPLGIDRWFKRHVRGTRLSGEHVNVRAFDWDTEARFGPFSVHFCAVQHWSARGLYDRNRTLWGSWALLHPQLRFWFSGDLGYSQDTRDIGARFGHFDVAAIAVGAYEPRWFMKTQHIDPAEAVQVMQDIGARHAVGIHWGTFPLTDEPLDQPIADLANALRARDIDAERFVLFRHGETRVWDAQAARLLTPAEQQKARPRVDSLAAQ”, the entry is “failed”; as for “MKNTKFSIKKIKNISNDPKVVHTKGALLEKMGKMESAIELYKSAALDNYVKSQYTLGNIYESKKQFKEAEKWYSMAYKSGSEDAAFDLGNMYYKLDGYEYAIYWYEKIANLGYLQAQNNLGVCHFKMKDFVRCEKWLKTAADKNLGKACFNLGVLYTFLEKDDEAYEYYKKGSVLLDDDAKYNLAILNGKKKDNKSTVSLYKQLYKSGHMKGCFNLGMIMEINDNLEDAEKYYKKSADRDDVKSEYRLAYVYDRKEELGDAIYYYEKAIEKNHTLSKYRLANLYNRENEIEKAKTYYKMAAEDDITEAKNNLAGIYFEEKDYENAIKYYEDAIAVGCKSSLENLGDLYYQNQDIEKAISYYSRIPNNVSCQIKLGNIYEDLNNIEEAISWYKKASENGDTRSSYRLGCIYESLGNTKNARKYFEMASSKNHMNARIHLGRIYFREGKLEESKMMFDTPANENNVYAQHMVGLIYDMFYKDYVNSKFWYEKARAQGCVESIYNLGQIYLKLNDDAEAEKYYKEGIKYGSKKCEYMLAGLYYKKSLDMYISLANEEYDNCEEIVEGFPNLNIDFDEVLIPPFKLQEEVIDEEEYVPIYILNIKESLDSMLEGLETEMIIDEEHDS”, “failed”. Under “MKNVLILGAGGQIARHVINQLADKQTIKQTLFARQPAKIHKPYPTNSQIIMGDVLNHAALKQAMQGQDIVYANLTGEDLDIQANSVIAAMKACDVKRLIFVLSLGIYDEVPGKFVEWNNAVIGEPLKPFRRAADAIEASGLEYTILRPAWLTDEDIIDYELTSRNEPFKGTIVSRKSVAALITDIIDKPEKHIGENIGINQPGTDGDKPFFM” stands “not failed”. Under “MKNVLYICIGALLAVLAFSSCNDGIDIRQDYDFSLSSWYLQKQIATGETVEIRFYLDREGDYEKAEYEIGYIQMEGKGEVSDCEGVKLVNREVKPLAEVPGLDTENPVKQVFTLFYRSTSARRSELKFFVRDNFGQEREMTVTFDTESGTTEE” stands “failed”; under “MKNYLQILRETLKAMLSKPMWLMVVASVCITSLPYMNHTALDLPVAVVDEDHSDVSRELVRLLDSAPKVAVVGYDSLPQAKRDLAWRKLYAIIVIPLNFEKRLLRGEALVIPYFGDATNRMANGQIQQDISAVYSALTNRYNAALLEREGFTATQAQVVLSPLVGQLTDLFNPGISFAAIVLPGLLSLILQHSLLLGCTRGNIMLRGGTPRYMRQPLSTRFGRYSAQLLIWTVLAMLFYVIWPHLLGYRQSASFFMLLGIVLPFLIAVIALSEFIAELLPTEESVYLTMTFITLPLFYMAGYSWPEQAMPDWVRWLADAIPSTWAIRAIAEMNQMDLPLREVSDHALVLLGMAATYALLGTLLYQYRNWRWDNVKGW”, “failed”; under “MKPEISIIVPIYNVEKYLSKCIDSILNQSFTNFELILVNDGSNDRSGIICDEYTLKDERIRVIHKKNGGVSSARNSGISLALGKYIGFVDPDDYIKEEMYEILYNLCKKYKTDISICKLGREINGTLINNEENGEIIELDNVNGLKELFKGILYRFSLCNKLFKRECFRGVIFPEGRIHEDLSTTYRLFANAKKSIYFDYVGYIYVKRENSILTTTYNEKRLQAFIGWNEILEFMINKYPMLEDNVVACFGYSCIDHSNYILNQVIGFNNKIRLLNFIRYEVKQRFSLLVKNKILINKLKLILILLMLNSRFLIISKYKGKGVYRKRIRI”, “failed”. As for “MKPKLILMSHGRMAEETLASTQMIVGELADAAIVSMTAEDGLSGTQAKLAAILKEAGNVPTLVLADLKGGTPCNVAMMAMGTYPQLRVVAGLNLAMAIEAAVSPVENVDELAAYLTQIGQSAVTTIDLPELTDEEEFEE”, the protein production result is recorded as “not failed”. On to “MKPLSARQQQVLQATVHHYVDTMEPVGSRTLVQRFGIPASSATVRSAMGALEKRGLLTQPHTSAGRIPSALGYRCYVDDLLPEPGVAVQHLERELTGLSLRWAALDDLLQQLARRLTDFTGLMSLITRPQQPRAQLEAIRLVQSGDRLLVMLVEDSGRASHLNLRLPPGASDELTAIERWTDQQLEDGSINWRSLPPQLQRSGDVLRSALDHPSMSPETPLVVHGLSRLVAEPEFHSTAELRPLLELIDDQPCAVVSATDQPGVWIGEEHPQKALQACSVVQAPYRCGQEGVGQVALVGPMRMAYATAHAAVQRVARHLDLLLN”, for which the protein production entry is reported as “failed”.

As to “MKPNFSRDYQLKWLFYVYCVRSEVGEEEEKKKVTKKTRKRVRFDLNVQTYEPIVPSRYENACSDDEEGKGGRSKGSSAIDKKPEDLSSRSVYPSNYRYHNCVDSFEDEDDEMGYGESDLEDEDYYTDNENDYEDDADDEDEEEEEENEQDVAPLLNPVENLAQWKAVKARPVKVKRVMKENVEEDMDDQAKPLLKEIIVNTSLSNWLASPKSLHANGSSKRSPIVDITNMENR”, the protein production entry is “failed”.

Values taken from a protein production outcome set (Wang et al. 2014).
